Consider seven molecules from patent US20150252074A1, “Antagonist for (Pro)Renin Receptor for the Treatment of Hypertension and Diabetes” (priority 2012, published 2015).

For test [1], the system named is Ang II type 1 receptor (AT1R). The test is described as follows: ICV losartan blockade of the pressor response induced by prorenin or renin. In kind it is in vivo, mice. Particulars: losartan 10 ug/ul ICV at 0.3 ul/minute for 10 minutes.
The target in test [2] is T1, (pro)renin receptor (PRR) (Mus musculus, UniProt Q9CYN9).
T1 construct: intracerebroventricular (ICV) cannula for infusion of mouse prorenin (100 ng/ul), PR10, or PR20; from tissue; host or cells: brain of conscious C57Bl/6J mice (in vivo, ICV infusion)
T1 sequence (Q9CYN9 18-350): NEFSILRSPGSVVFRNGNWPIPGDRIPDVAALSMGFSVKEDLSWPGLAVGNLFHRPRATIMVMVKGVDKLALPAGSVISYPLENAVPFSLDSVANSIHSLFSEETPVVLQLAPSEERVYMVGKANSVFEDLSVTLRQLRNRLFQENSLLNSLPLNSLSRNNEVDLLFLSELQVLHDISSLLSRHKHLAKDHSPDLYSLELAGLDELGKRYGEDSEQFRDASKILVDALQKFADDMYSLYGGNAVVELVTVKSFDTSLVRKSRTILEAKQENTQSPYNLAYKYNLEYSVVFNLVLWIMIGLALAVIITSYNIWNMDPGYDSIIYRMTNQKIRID
Nature of the test: ICV infusion of PRR antagonist peptides against the prorenin-induced pressor response, telemetric BP recording. In kind it is in vivo, C57BI/6J mice. Particulars: for effect on prorenin (ICV) induced pressor response (in words): ICV administration, C57BI/6J mice; for ΔMAP (prorenin-induced pressor response in peptide-infused mice): ICV infusion, peptide 45 ng/u1, mouse prorenin 100 ng/ul, vs. prorenin, N=5/group. On the procedure:
C57BI/6J mice (N=5/group) were each implanted with a telemetric probe for BP recording and an intracerebroventricular (ICV) cannula for infusion of mouse prorenin (100 ng/ul), PR10, or PR20 (45 ng/u1) at 0.3 ul/minute for 10 minutes. Mouse prorenin infusion increased the BP (mmHg) in WT mice (ΔMAP: 31.3±1.1); however, the prorenin-induced pressor response was abolished in either PR10 (ΔMAP: 16.9±4.4 vs. prorenin) or PR20 (ΔMAP: 12.7±0.5 vs. prorenin) infused mice.

Test [3] deals with (pro)renin receptor (PRR) in mouse brain sections (mouse) (UniProt Q9CYN9). The test is described as follows: cell-based or functional assay.
(pro)renin receptor (PRR) in mouse brain sections (mouse), sequence (Q9CYN9 18-350): as above
Test [4] concerns the target T2, (pro)renin receptor (PRR) in mouse brain sections (mouse, UniProt Q9CYN9 18-350).
T2 construct: whole, on cells; Endogenous receptor in mouse brain tissue, not a recombinant construct
The test is described as follows: FITC-labelled peptide, fluorescence microscopy on mouse brain sections. Here is the method:
In order to determine which residues of the PR20 antagonist peptide are involved in binding PRR, an alanine replacement assay was performed. A series of peptides comprising a single alanine substitution at each of the 19 amino acid positions were generated. Each of the 19 alanine substituted peptides and the PR20 peptide were labeled with FITC. Using fluorescent microscopy, each peptide was examined for binding to PRR in mouse brain sections.

The test system of the next test is Nefh-PRR mice. The test is described as follows: Pressor response to ICV infusion of mouse prorenin or mouse renin in neuron-specific PRR knockout mice (Nefh-PRR). In kind it is in vivo. Particulars: 100 ng/ul at 0.3 ul/minute for 10 minutes ICV, N=5/group. On the procedure:
(§1) FIG. 6 is a series of graphs illustrating the pressor response to intracerebroventricular (ICV) infusion of carbachol (FIG. 6A), Ang II (FIG. 6B), renin (FIG. 6C), and prorenin (FIG. 6D) in wild-type (WT) and Nefh-PRR mice. WT and Nefh-PRR mice were implanted with telemetric transmitters and ICV cannula. Two weeks after recovery, mice were ICV infused (0.3μl/min) with carbachol (100 ng/μl), Ang II (100 ng/μl), Ang II (100 ng/μl)+losartan (10 μg/μl), mouse renin (100 ng/μl), mouse prorenin (100 ng/μl), or mouse prorenin (100 ng/μl)+losartan (10 μg/μl) over 10 minutes. Blood pressure (BP) was recorded in conscious freely moving mice. *P<0.05 vs. WT.
(§2) Neuron-specific PRR knockout mice (Nefh-PRR) and wildtype (WT) littermates (N=5/group) were each implanted with a telemetric probe for blood pressure (BP) recording and an intracerebroventricular (ICV) cannula for infusion of mouse prorenin (100 ng/ul), mouse renin (100 ng/ul), or an Ang II type 1 receptor (AT1R) blocker (losartan, 10 ug/ul) at 0.3 ul/minute for 10 minutes. Mouse prorenin infusion increased the BP (mmHg) in WT mice (ΔMAP: 41±5); however, the prorenin induced pressor response was abolished in Nefh-PRR mice (ΔMAP: 5±1).

The test system of the next test is WT mice. Nature of the test: Pressor response to ICV infusion of mouse prorenin or mouse renin in wildtype (WT) mice, telemetric BP recording. The following applies: 100 ng/ul at 0.3 ul/minute for 10 minutes ICV, N=5/group. In kind it is in vivo. Here is the method: as §1, §2

Entries after “also recorded” stand apart in the source; their conditions may differ. Where no end group is shown, it is not given here.

T2 sequence (Q9CYN9 18-350): as above

In the case of `CCCCc1nc(Cl)c(CO)n1Cc1ccc(-c2ccccc2-c2nn[nH]n2)cc1` [losartan], in test [1], the “effect on pressor response induced by prorenin or renin (in words)” value is listed as “completely blocked”.

With “IFDNIISQGVLKEDVF (PRR antagonist peptide (PR10))”, the “effect on prorenin (ICV) induced pressor response (in words)” value in test [2] is “abolished; also recorded: significantly reduced”. In test [2] (0.3 ul/minute for 10 minutes), the “ΔMAP (prorenin-induced pressor response in peptide-infused mice)” value stood at 16.9±4.4 mmHg.

For the molecule “mouse prorenin (from UniProt P06281 22-402) (ligand)”, in test [3], the pressor response to ICV mouse prorenin in WT mice (ΔMAP) was found to be 41 mmHg and the pressor response to ICV mouse prorenin in neuron-specific PRR knockout (Nefh-PRR) mice (ΔMAP) turned out to be 5 mmHg.

“LPTDTTTFKRIFLKRMPSI (PRR antagonist peptide (PR20))”: the “effect on prorenin (ICV) induced pressor response (in words)” value in test [2] is on record as “abolished; also recorded: significantly reduced”. Moreover, in test [2] (0.3 ul/minute for 10 minutes), the “ΔMAP (prorenin-induced pressor response in peptide-infused mice)” value turned out to be 12.7±0.5 mmHg.

Consider LPTDTTTFKRIFLKRMPSI (also: FITC label, site not given here, also called PR20 antagonist peptide) [PR20 peptide labeled with FITC], for which the binding result in test [4] is recorded as “binds”.

B1: mouse renin: mouse renin protein infused ICV to induce a pressor response (protein, UniProt P06281 72-402, looked up)
Renin-1: SPVVLTNYLNTQYYGEIGIGTPPQTFKVIFDTGSANLWVPSTKCSRLYLACGIHSLYESSDSSSYMENGSDFTIHYGSGRVKGFLSQDSVTVGGITVTQTFGEVTELPLIPFMLAKFDGVLGMGFPAQAVGGVTPVFDHILSQGVLKEEVFSVYYNRGSHLLGGEVVLGGSDPQHYQGNFHYVSISKTDSWQITMKGVSVGSSTLLCEEGCAVVVDTGSSFISAPTSSLKLIMQALGAKEKRIEEYVVNCSQVPTLPDISFDLGGRAYTLSSTDYVLQYPNRRDKLCTLALHAMDIPPPTGPVWVLGATFIRKFYTEFDRHNNRIGFALAR
Turning to B1, the “ΔMAP (pressor response to ICV infusion)” value is given as 27±2 mmHg with Nefh-PRR mice and 31±5 mmHg in the test with WT mice.

B2: mouse prorenin: activating ligand of PRR, infused ICV to induce a pressor response (protein)
chain: LPTRTATFERIPLKKMPSVREILEERGVDMTRLSAEWGVFTKRPSLTNLTSPVVLTNYLNTQYYGEIGIGTPPQTFKVIFDTGSANLWVPSTKCSRLYLACGIHSLYESSDSSSYMENGSDFTIHYGSGRVKGFLSQDSVTVGGITVTQTFGEVTELPLIPFMLAKFDGVLGMGFPAQAVGGVTPVFDHILSQGVLKEEVFSVYYNRGSHLLGGEVVLGGSDPQHYQGNFHYVSISKTDSWQITMKGVSVGSSTLLCEEGCAVVVDTGSSFISAPTSSLKLIMQALGAKEKRIEEYVVNCSQVPTLPDISFDLGGRAYTLSSTDYVLQYPNRRDKLCTLALHAMDIPPPTGPVWVLGATFIRKFYTEFDRHNNRIGFALAR
Turning to B2, the “ΔMAP (pressor response to ICV infusion)” value with Nefh-PRR mice worked out at 5±1 mmHg; with WT mice, 41±5 mmHg. The “ΔMAP (increase of BP by mouse prorenin infusion alone)” value in test [2] (ICV mouse prorenin 100 ng/ul, 0.3 ul/minute for 10 minutes, WT (C57BI/6J) mice) is 31.3±1.1 mmHg.
